Source: the supplement of paper PMC10567573

B1: PDLIM4 (parent)
chain: FLDERLYCESHAKARVKPPEGYDV

Variants of: B1
Assay: protein stability index of a GFP-peptide fusion (GPS, HEK-293T) (PSI 1-6); higher = more stable
Settings: c terminus: a fixed tail appended
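Further: lentivirally expressed fusions sorted by FACS into six bins by GFP to DsRed ratio, PSI derived from sequencing read proportions per bin multiplied by bin number.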

Protein stability index of substitutions, site by site:
A14: S 2.01 | N 1.39 | K 1.07 | L 1.75 | F 1.65 | E 1.31 | Y 2.23 | R 2.57 | D 1.36 | M 1.76 | H 2.56 | Q 2.29 | I 2.02 | G 2.7
H11: M 2.23 | L 1.48 | A 1.85 | T 1.99 | D 2.39 | E 1.34 | N 1.86 | Q 1.34 | R 1.79 | C 1.04 | K 1.64 | F 1.48 | Y 2.18 | I 2.19 | S 1.98 | V 1.72
P19: H 1.72 | L 2.26 | D 2.15 | M 1.77 | F 1.93 | N 1.21 | R 2.65 | K 2.31 | C 2.26 | S 1.11 | W 2.75 | T 2.29 | E 1.05 | I 1.86 | Y 1.43 | G 2.01
P18: G 1.75 | F 2.16 | I 1.01 | E 1.75 | Q 2.38 | A 2.82 | S 2.52 | D 1.36 | N 1.54 | Y 2.46 | T 1.71 | V 1.96 | H 1.69 | M 1.1 | R 2.41
E9: W 1.22 | Y 2.13 | M 2.41 | T 1.31 | N 2.58 | L 2.34 | Q 1.44 | V 1.83 | S 1.97
S10: N 1.26 | K 2.12 | L 2.69 | I 2.17 | F 1.61 | G 1.97 | T 1.79 | P 2.32 | V 1.4 | Q 1.88 | E 2.1 | Y 2.75 | M 2.54 | W 3.67 | D 2.01 | A 1.44 | H 1.58 | C 1.95
Y22: G 2.68 | A 1.32 | F 1.43 | C 2.75 | P 3.32 | M 1.37 | K 2.46 | D 1.53 | I 3 | Q 2.55 | E 2.43 | W 1.28 | S 1.04 | R 2.71 | T 2.29 | N 2.65 | L 1.15
E20: L 1.1 | S 1.4 | I 2.65 | A 2.53 | R 2.7 | M 2.03 | T 2.26 | P 3.31 | G 2.67 | N 2.28 | H 2.82 | D 1.74 | Q 3.09 | V 3 | Y 2.28
A12: F 3.29 | S 1.42 | T 2.04 | I 1.6 | E 1.47 | D 2.48 | L 1.28 | R 1.82 | N 1.42 | C 1.23 | Y 1.77 | M 1.53 | H 1.77 | Q 1.37 | G 2.68
K17: L 2.56 | S 1.48 | D 1.27 | N 1.87 | V 2.62 | E 2.08 | Y 1.66 | F 2.12 | M 2.53 | H 1.88 | Q 1.86 | P 2.25 | R 1.87 | I 1.33 | A 1.91 | C 1.99
V24: W 1.91 | G 1.51 | P 2.53 | D 1.33 | Q 1.11 | R 1.99 | M 2.12 | C 1.71 | E 1.6 | A 2.09 | H 1.63 | T 1.53 | Y 1.6 | L 1.03 | N 2.32 | I 2.47
